Bridges are numbered along the chain shown (N, C = ends). [ ]: non-standard residue; d: D form. Ahx = NCCCCCC(=O)O

What is called Kd is the equilibrium constant for the complex coming apart. The low end stands for tighter binding, the high end for weaker binding.

In assay [1] the target is T1, human serum albumin (HSA) (human, UniProt P02768). Description: FP.
Assay [2] has as its target T1, human serum albumin (HSA). Nature of the assay: FP, PBS.
For assay [3], the target named is T1, human serum albumin (HSA). Nature of the assay: FP, pH 6.2, 0.14 M NaCl.
In assay [4] the target is T1, human serum albumin (HSA). Description: FP, pH 7.4, 0.14 M NaCl, 0.1% caprylate.
The target in assay [5] is T1, human serum albumin (HSA). Description: FP, pH 7.4, 0.14 M NaCl.
In assay [6] the target is T1, human serum albumin (HSA). Description: FP, PBS. The source holds these as a separate data set.

In the case of Ac-AEGTGDFWFCDRIAWYPQHLCGGGK-NH2 (disulfide 10-21 (inferred)) [DX-236 truncation SEQ 42], binding in assay [1] was put at a Kd of 8.9 µM.

B1: DX-997 (peptide)
chain: Ac-GDFSLCWIVDEDGTKWCLPDPGGGK-NH2
modifications: disulfide 6-17 (inferred); also: fluorescein label, attachment site not given here
B1: the Kd in assay [2] is > 10 µM.

Turning to Ac-AEGTGDDWDCVTDWANRHQHCWALDPE[Ahx]K(fluorescein)-NH2 (disulfide 10-21 (inferred)) [DX-317], in assay [3], the Kd is > 200 µM.

Ac-GDDSMCITWPFKRPWPCANDPGGGK-NH2 (disulfide 6-17 (inferred); also: fluorescein label, position not given here) [DX-1163] returned a Kd in assay [2] of 42 µM.

For the molecule Ac-AEGTGDDWDCVTRWANRDQQCWALDPE[Ahx]K(fluorescein)-NH2 (disulfide 10-21 (inferred)) [DX-315], the Kd is > 200 µM in assay [3] and > 100 µM in assay [4].

Regarding Ac-AEGTGSVAWCTIFLCLDVAPEGGGK(fluorescein)-NH2 (disulfide 10-15 (inferred)) [DX-232], in assay [3], the Kd came to 0.5 µM.

Consider Ac-GDNDGCTDTNWSWMFDCPPLDPGGGK-NH2 (disulfide 6-17 (inferred); also: fluorescein label, position not given here) [DX-1165], for which the Kd in assay [2] was > 10 µM.

For Ac-GSRSFCMDWPNHRDCDYSAPGGGK-NH2 (disulfide 6-15 (inferred); also: fluorescein label, position not given here) [DX-1171], the Kd in assay [2] was found to be 165 µM.

Molecule Ac-AGLEYCFYQWWGCPHAGTGGGK-NH2 (disulfide 6-13 (inferred); also: fluorescein label, position not given here) [DX-1177] came in with a Kd in assay [2] of 153 µM.

For the molecule Ac-GDSFCVTYIGTWETVCKRSDPGGGK-NH2 (disulfide 5-16 (inferred); also: fluorescein label, position not given here) [DX-1089], the Kd in assay [2] is > 10 µM.

Ac-GDSPYCKIALFQHFEVCAADDPGGGK-NH2 (disulfide 6-17 (inferred); also: fluorescein label, position not given here) [DX-1167]: the Kd in assay [2] was > 10 µM.

Ac-AGWTTCHIYDWFCSSSGTGGGK-NH2 (disulfide 6-13 (inferred); also: fluorescein label, position not given here) [DX-1175]: the Kd in assay [2] came out at 30 µM.

B2: DX-321 (GD...GGGK form) (peptide)
chain: Ac-GDRNMCKFSWIRSPAFCARADPGGGK-NH2
modifications: disulfide 6-17 (inferred); also: fluorescein label, attachment site not given here
B2: the Kd in assay [2] is > 10 µM.

With Ac-AGYQFCTWDPIFCGWHGTGGGK-NH2 (disulfide 6-13 (inferred); also: fluorescein label, position not given here) [DX-1179], the Kd in assay [2] worked out at 185 µM.

In turn, Ac-GDLRDCQTTWPFTMMQCPNNDPGGGK-NH2 (disulfide 6-17 (inferred); also: fluorescein label, position not given here) [DX-1002] returned a Kd in assay [2] of 4 µM.

Ac-AEGTGSHVGCNNALCMQYAPE[Ahx]K(fluorescein)-NH2 (disulfide 10-15 (inferred)) [DX-296]: the Kd in assay [3] was > 100 µM; in assay [4], > 200 µM.

Take Ac-AEGTGSWKVCDHFFCLSPAPE[Ahx]K(fluorescein)-NH2 (disulfide 10-15 (inferred)) [DX-297]: the Kd in assay [5], in assay [3] and in assay [4] was > 200 µM each time.

With Ac-AEGTGSFKICDQWFCLMPAPE[Ahx]K(fluorescein)-NH2 (disulfide 10-15 (inferred)) [DX-295], the Kd in assay [3] was > 100 µM.

On to Ac-GDLRSCFTYYPFTTFSCSPADPGGGK-NH2 (disulfide 6-17 (inferred); also: fluorescein label, position not given here) [DX-1091], for which the Kd in assay [2] was > 10 µM.

Regarding Ac-AEGTGDDWQCVKDWANRRRGCMADDPE[Ahx]K(fluorescein)-NH2 (disulfide 10-21 (inferred)) [DX-319], the Kd in assay [5] and in assay [3] was > 200 µM in each case.

As to Ac-GDRWFCDSAYWQEIPACARDDPGGGK-NH2 (disulfide 6-17 (inferred); also: fluorescein label, position not given here) [DX-1085], the binding result in assay [6] is reported as “no binding”.

Consider Ac-FWFCDRIAWYPQHLCEFLDPEGGGK-NH2 (disulfide 4-15 (inferred)) [DX-236 truncation SEQ 39], for which the Kd in assay [1] came out at 8.9 µM.

Turning to Ac-GSLWDCWLYDCEGNAPGGGK-NH2 (disulfide 6-11 (inferred); also: fluorescein label, position not given here) [DX-1093], the Kd in assay [2] is > 10 µM.

Consider Ac-AGKWYCAWDPLVCEIFGTGGGK-NH2 (disulfide 6-13 (inferred); also: fluorescein label, position not given here) [DX-1173], for which the Kd in assay [2] was > 10 µM.

Take Ac-GDSDFCDTPYWRDLWQCNSPDPGGGK-NH2 (disulfide 6-17 (inferred); also: fluorescein label, position not given here) [DX-1087]: in assay [6], the binding result is listed as “no binding”.

For Ac-GDPRSCVEKYYWDVLICGFFDPGGGK-NH2 (disulfide 6-17 (inferred); also: fluorescein label, position not given here) [DX-1169], the binding result in assay [6] is listed as “no binding”.

For the origin of these results see patent publication US7211395 (dated 2007).
